Each block holds one molecule with its values, some of them ahead of it.
How the values were obtained:
[1] = target: Soluble human IL-3Rα (human) (UniProt P26951); assay: SPR (Biacore), soluble human IL-3Rα immobilized on CM-5 chip, scFv injected, 25 °C
Soluble human IL-3Rα [2] = target: T1, Soluble human IL-3Rα (human, UniProt P26951 20-305, limits assumed); assay: SPR (Biacore), mAb captured by anti-human Fc antibody, soluble human IL-3Rα injected, 25 °C
T1 construct: The assay used 'soluble human IL-3Rα'; also called IL-3Rα chain; interleukin 3 receptor alpha chain
T1 sequence: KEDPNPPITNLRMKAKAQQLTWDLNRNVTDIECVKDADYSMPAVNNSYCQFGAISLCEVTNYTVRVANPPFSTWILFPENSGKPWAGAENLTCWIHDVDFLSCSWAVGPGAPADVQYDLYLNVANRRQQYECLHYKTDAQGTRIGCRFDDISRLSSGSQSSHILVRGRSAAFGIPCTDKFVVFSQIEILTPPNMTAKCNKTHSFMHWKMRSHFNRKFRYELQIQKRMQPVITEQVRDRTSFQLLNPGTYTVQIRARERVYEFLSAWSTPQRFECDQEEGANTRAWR

Soluble human IL-3Rα [3] = target: T1, Soluble human IL-3Rα; assay: SPR (Biacore), mAb captured by anti-mouse Fc antibody, soluble human IL-3Rα injected, 25 °C

Kd [1]: 2.2 nM
Molecule: CSL362 scFv

Kd (Soluble human IL-3Rα [2]): 1 nM
Molecule: chimeric form of parental murine mAb (human IgG1) (antibody)

Kd (Soluble human IL-3Rα [3]): 0.92 nM
Molecule: parental murine mAb (7G3) (antibody)

Kd (Soluble human IL-3Rα [2]): ~0.43 nM
B1: CSL362B (antibody, human IgG1, kappa, V domains shown)
VH: EVQLVQSGAEVKKPGESLKISCKGSGYSFTDYYMKWARQMPGKGLEWMGDIIPSNGATFYNQKFKGQVTISADKSISTTYLQWSSLKASDTAMYYCARSHLLRASWFAYWGQGTMVTVSS
VL: DIVMTQSPDSLAVSLGERATINCESSQSLLNSGNQKNYLTWYQQKPGQPPKPLIYWASTRESGVPDRFSGSGSGTDFTLTISSLQAEDVAVYYCQNDYSYPYTFGQGTKLEIKR
modifications: Heavy chain constant region is afucosylated
notes: Expressed in FUT8-knock-out CHO cells (Potelligent)
